According to US20140271602, “NUCLEOTIDE-SPECIFIC RECOGNITION SEQUENCES FOR DESIGNER TAL EFFECTORS” (THE BROAD INSTITUTE INC., published 2014):

How the values were obtained:
[1] = system: SOX2 TALE-TF (Xanthomonas (engineered)); assay: cell_activity; settings: endogenous SOX2
[2] = system: AAVS1 right TALEN (Xanthomonas (engineered)); assay: cell_activity; settings: Surveyor assay, with left TALEN, 293FT
[3] = system: AAVS1 left TALEN (Xanthomonas (engineered)); assay: cell_activity; settings: Surveyor assay, with right TALEN, 293FT
[4] = system: NH-TALE (RVD screening) (Xanthomonas (engineered)); assay: cell_activity; settings: luciferase reporter
[5] = system: NN-TALE (RVD screening) (Xanthomonas (engineered)); assay: cell_activity; settings: luciferase reporter
[6] = biological target: T1, TALE2-NN (CACNA1C site 2 activator) (Xanthomonas (engineered), UniProt P14727 SEQ:1-983); assay: cell_activity; HEK 293FT, endogenous CACNA1C mRNA; settings: tags: VP64, 2A-GFP
T1 chain: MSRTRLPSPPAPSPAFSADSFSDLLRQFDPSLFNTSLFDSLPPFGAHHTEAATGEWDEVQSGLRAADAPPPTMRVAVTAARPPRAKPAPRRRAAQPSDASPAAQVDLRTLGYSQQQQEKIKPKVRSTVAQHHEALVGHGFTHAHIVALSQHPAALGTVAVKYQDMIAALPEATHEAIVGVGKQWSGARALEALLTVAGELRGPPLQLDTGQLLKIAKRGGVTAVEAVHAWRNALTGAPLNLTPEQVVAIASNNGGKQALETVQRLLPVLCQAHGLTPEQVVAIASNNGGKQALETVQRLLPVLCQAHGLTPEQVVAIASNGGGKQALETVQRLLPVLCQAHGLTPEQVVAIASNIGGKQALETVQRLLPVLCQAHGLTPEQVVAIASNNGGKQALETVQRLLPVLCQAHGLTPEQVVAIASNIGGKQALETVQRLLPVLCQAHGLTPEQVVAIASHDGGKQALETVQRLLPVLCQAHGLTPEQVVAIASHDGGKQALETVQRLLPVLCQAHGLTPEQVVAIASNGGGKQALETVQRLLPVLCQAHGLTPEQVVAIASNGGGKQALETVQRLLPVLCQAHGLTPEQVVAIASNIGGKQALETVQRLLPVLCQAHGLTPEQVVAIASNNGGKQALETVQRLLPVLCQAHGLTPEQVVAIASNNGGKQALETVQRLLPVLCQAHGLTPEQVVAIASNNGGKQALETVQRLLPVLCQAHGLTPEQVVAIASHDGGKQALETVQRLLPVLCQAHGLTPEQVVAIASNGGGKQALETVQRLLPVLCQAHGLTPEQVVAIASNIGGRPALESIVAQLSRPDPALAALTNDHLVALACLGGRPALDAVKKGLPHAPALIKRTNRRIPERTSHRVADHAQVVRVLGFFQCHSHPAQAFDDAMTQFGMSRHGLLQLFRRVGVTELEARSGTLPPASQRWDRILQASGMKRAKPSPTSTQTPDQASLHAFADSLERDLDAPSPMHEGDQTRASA
Method: Changes in mRNA are measured using qRT-PCR as described previously. VP64, VP64 transcription activation domain. All results are collected from three independent experiments in HEK 293FT cells. Error bars indicate s.e.m.; n=3. FIG. 19(b) discloses SEQ ID NOS 63 and 62, respectively, in order of appearance.
Using qRT-PCR, the performance of NN, NK, NH, and HN for targeting endogenous genomic sequences was further compared. The ability of NN-, NK-, NH-, and HN-TALEs to activate CACNA1C transcription by targeting the two endogenous target sites was tested (FIG. 19b). […] Both TALE 1-NH and TALE2-NH were able to achieve similar levels of transcriptional activation as TALE1-NN and TALE2-NN (˜5 and ˜3 folds of activation for targets 1 and 2, respectively) and twice more than TALE-NK and TALE2-NK (FIG. 19b). […] On the other hand, based on all the results from specificity and endogenous activity tests, the RVD NH seems to be a more suitable substitute for NN than NK when higher targeting specificity is desired, as it also provides higher levels of biological activity. Further testing using additional endogenous genomic targets helps validate the broad utility of NH as a highly specific G-targeting RVD.
For the endogenous gene transcriptional level assay to test the biological activities of TALE activators and TALE repressors, HEK 293FT cells were seeded into 24-well plates. […]

[7] = biological target: T2, TALE2-NH (CACNA1C site 2 activator) (Xanthomonas (engineered), UniProt P14727 SEQ:1-983); assay: cell_activity; HEK 293FT, endogenous mRNA; reporter 2.7x that of NK; settings: tags: VP64, 2A-GFP
T2 chain: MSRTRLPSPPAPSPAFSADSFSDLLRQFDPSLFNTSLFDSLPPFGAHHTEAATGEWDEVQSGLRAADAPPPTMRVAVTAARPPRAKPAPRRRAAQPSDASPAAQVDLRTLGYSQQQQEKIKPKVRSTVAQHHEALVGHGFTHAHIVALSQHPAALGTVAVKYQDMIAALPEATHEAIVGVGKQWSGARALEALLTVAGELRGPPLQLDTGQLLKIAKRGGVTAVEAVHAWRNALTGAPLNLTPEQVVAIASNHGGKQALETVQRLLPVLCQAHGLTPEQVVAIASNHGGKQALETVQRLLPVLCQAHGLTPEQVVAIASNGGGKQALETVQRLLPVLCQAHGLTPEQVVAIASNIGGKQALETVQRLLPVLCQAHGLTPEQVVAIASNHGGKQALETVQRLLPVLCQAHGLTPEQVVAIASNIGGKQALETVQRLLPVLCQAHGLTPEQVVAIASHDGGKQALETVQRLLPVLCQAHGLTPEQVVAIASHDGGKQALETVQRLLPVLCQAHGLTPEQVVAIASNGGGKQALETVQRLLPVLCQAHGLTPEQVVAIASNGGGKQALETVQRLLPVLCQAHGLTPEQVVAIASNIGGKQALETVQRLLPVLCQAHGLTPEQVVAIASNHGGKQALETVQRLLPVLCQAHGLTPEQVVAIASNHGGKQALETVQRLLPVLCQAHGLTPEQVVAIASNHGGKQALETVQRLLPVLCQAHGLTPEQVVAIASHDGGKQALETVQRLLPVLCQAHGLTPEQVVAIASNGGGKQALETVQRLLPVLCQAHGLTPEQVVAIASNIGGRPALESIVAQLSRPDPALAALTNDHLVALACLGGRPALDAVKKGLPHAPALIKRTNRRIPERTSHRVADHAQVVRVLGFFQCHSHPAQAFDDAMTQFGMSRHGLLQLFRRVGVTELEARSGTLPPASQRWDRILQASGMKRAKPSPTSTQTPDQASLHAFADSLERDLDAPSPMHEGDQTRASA

Molecule: SOX2 TALE-TF site
- activity (fold activation) [1]: < 5

Molecule: GTCCTAACCACTGTCTTT (double strand) [AAVS1 right TALEN site]
- activity (% cleavage (pair)) [2]: < 3.6

Molecule: TGTCCCCTCCACCCCACA (double strand) [AAVS1 left TALEN site]
- activity (% cleavage (pair)) [3]: < 3.6

Molecule: TTCTTGGTTATAAC (double strand) [RVD screen G-reporter]
- binding signal (G- to A-reporter activation ratio) [4]: 16.4
- binding signal (G- to A-reporter activation ratio) [5]: 3.5

B1: CACNA1C site 2 (dsDNA)
DNA 1: TGGTAGACCTTAGGGCTA
DNA 2: TAGCCCTAAGGTCTACCA
- activity [6]: ~3 fold activation
- activity [7]: ~3 fold activation
